From doi:10.1101/2020.09.22.308338 (bioRxiv, 2020) come the findings set out here.

For experiment [1], the target named is T1, SARS-CoV-2 spike receptor-binding domain (RBD) (SARS-CoV-2, UniProt P0DTC2, biotin (biotinylated RBD in the BLI experiments only)). The experiment can be described thus: BLI.
For experiment [2], the target named is T1, SARS-CoV-2 spike receptor-binding …. The experiment is described as follows: bead-based multiplex ACE2 competition assay.

B1: nanobody NM1230 (VHH)
VHH: QVQLVESGGGLVRPGGSLRLSCVGSGFTFSGYAMNWYRQAPGKALELVAGISNAGDLTHYEEPMKGRVAISRANDKNTVYLQMDDLKPEDTAVYRCHAPGVRVGTGERKDVWGQGAQVTVSS
As usually defined, the Kd is the free concentration of one partner at which half of the binding sites on the other are occupied at equilibrium, for simple one-to-one binding. A low value points to higher affinity. As a reminder, the IC50 is the concentration that inhibits the measured activity by half. As for B1, the Kd in experiment [1] was 8.23 nM. The IC50 in experiment [2] turned out to be 2.12 nM.
